Results published in the supplement of paper PMC10126150.
± gives the standard deviation of the averaged measurements.

The sequences below were run on ATP (assay: switch fluorescence ratio, 500 uM ATP over buffer (Cy3 cluster intensity, sum of 5 cycles each) (fold (ratio)); higher = stronger signal-on switching upon ATP binding; sequences stand for … in TCGTCGGCAGCGTCAGATGTGTATAAGAGACAGTTTTTTTTTTTTTTTTTTTTTTTTT…TC). Details: aptamer strand: ATP DNA aptamer (quencher-CACCTGGGGGAGTATTGCGGAGGAAGG + anchor), 100 nM annealed; ATP concentration: 500 uM.
In short: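 Values give the fluorescence ratio for each switch-domain sequence, averaged from per-cluster ratios of summed target-cycle to summed buffer-cycle Cy3 intensity. The Cy3-labelled switching-strand clusters sat on a modified Illumina MiSeq flow-cell, were annealed to 100 nM quencher-labelled ATP aptamer, and were imaged in selection buffer, then after 15 min with 500 uM ATP at 22 °C. Five cycles ran with NaOH stripping and re-annealing between them, and clusters outside 100-1000 RFU were excluded.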
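Also: ATP exposure 15 min at 22 °C before imaging.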

| Sequence | switch fluorescence ratio |
| --- | --- |
| TGTGACGGGA | 1.091 ± 0.0051 |
| TTGGAGGAGA | 1.029 ± 0.005 |
| ACCTGAATAG | 1.14 ± 0.11 |
| GGTTTTGTGG | 1.01 ± 0.03 |
| GGGCGAAGTC | 0.975 ± 0.03 |
| TCACATAGTT | 1.01 ± 0.0061 |
| AAAGTTTACA | 1.03 ± 0.014 |
| GCATGTTGGG | 1.01 ± 0.029 |
| TTGGGGGATG | 0.985 ± 0.0088 |
| TTTCGTTCTC | 1.008 ± 0.0045 |
| TCGCTAATTG | 1.04 ± 0.022 |
| TGACTTTTTC | 1.03 ± 0.016 |
| TACGGGATGT | 1.046 ± 0.0092 |
| GTGTATTTTG | 0.996 ± 0.014 |
| GGGAACGTGT | 0.997 ± 0.019 |
| GCTCTGGGGG | 1.03 ± 0.039 |
| AATTGTGGTT | 0.97 ± 0.043 |
| TTTATCATTG | 0.9909 ± 0.0086 |
| GCTGCGGTTT | 0.993 ± 0.013 |
| TCGAGGGGGC | 1.07 ± 0.17 |
| GCGAGTGTGT | 0.984 ± 0.029 |
| GGGCGGCGGG | 1.05 ± 0.053 |
| TCGCCTGGCG | 0.972 ± 0.034 |
| GCATTTTGGG | 0.986 ± 0.033 |
| TGGGGAAACC | 2.35 ± 2.3 |

| Sequence | switch fluorescence ratio |
| --- | --- |
| AGTAAAGCAG | 1 ± 0.055 |
| TTAATAACTT | 1.01 ± 0.019 |
| TGCGTCCAAG | 1.02 ± 0.029 |
| AAGGTGAAGA | 1.04 ± 0.029 |
| TTTTAAGGTC | 1.019 ± 0.0034 |
| TTACGGTCCC | 1.19 ± 0.24 |
| CCAATTTGTG | 1 ± 0.028 |
| GAATATGGGT | 0.995 ± 0.015 |
| CGTGGGCGTG | 0.9797 ± 0.0013 |
| GCCGGGGGCG | 0.982 ± 0.051 |
| GGGTTGTTAG | 0.996 ± 0.027 |
| CAGGGCAAGG | 1.12 ± 0.08 |
| CGAGTATCTA | 0.993 ± 0.029 |
| TTCACACTA | 1.07 ± 0.044 |
| TTGGGCATTG | 1.01 ± 0.017 |
| GTGGCATGTT | 0.9788 ± 0.0038 |
| TTTGCGGAAA | 1.01 ± 0.023 |
| GATTTTGGGA | 0.9815 ± 0.0068 |
| GAGTGCCGTG | 1.01 ± 0.065 |
| CTGGAAAACG | 1.008 ± 0.0046 |
| AGCTGATGGG | 1.01 ± 0.014 |
| TTTACCCATC | 1.04 ± 0.033 |
| CGTGAAGTCG | 0.954 ± 0.025 |
| CGTTACGTGT | 1.026 ± 0.0042 |
| TTTTGGGTTG | 1.03 ± 0.076 |

| Sequence | switch fluorescence ratio |
| --- | --- |
| CTACATGACT | 1.13 ± 0.025 |
| ATCTGGATGG | 0.996 ± 0.03 |
| TTTAAGATAT | 1.09 ± 0.074 |
| ATCCCGGGAT | 1 ± 0.022 |
| TTATGTCGAG | 0.978 ± 0.034 |
| TTAGTATATA | 0.9946 ± 0.0059 |
| TCATGCAGAT | 1.02 ± 0.056 |
| AGTAGGTCGG | 0.987 ± 0.01 |
| TATGTGTGCG | 1.02 ± 0.017 |
| TTCTATTTCG | 1 ± 0.019 |
| TTAATGCGCA | 1 ± 0.019 |
| TCTCATGGAG | 1 ± 0.012 |
| CGGGGAGATC | 1.03 ± 0.062 |
| CCTACATTG | 1 ± 0.02 |
| GGGGGTACGC | 1.03 ± 0.028 |
| GAATCGATTT | 1.02 ± 0.027 |
| CATATCCCCT | 1.03 ± 0.045 |
| ACGATGTGCT | 0.982 ± 0.015 |
| GTGTCTAGTA | 1 ± 0.02 |
| CATTGGAAGA | 1.02 ± 0.015 |
| ACGTAGTTTC | 1.05 ± 0.023 |
| ATGAAGTAAT | 1 ± 0.023 |
| AATTGTTGTG | 1 ± 0.022 |
| TTTTTGGCGC | 1.01 ± 0.032 |
| GTTGTTATCG | 0.993 ± 0.028 |

| Sequence | switch fluorescence ratio |
| --- | --- |
| GTATTATGGG | 1 ± 0.029 |
| GGGATTACGT | 1.03 ± 0.029 |
| GTTTCTATGG | 0.9961 ± 0.0085 |
| CGGTTTTATT | 0.982 ± 0.028 |
| ATAGAGGGTG | 1.05 ± 0.071 |
| TTATTCGTTT | 0.98 ± 0.03 |
| GGGGGGCGCG | 1.01 ± 0.025 |
| ACCAGCTACA | 1.09 ± 0.033 |
| GGGTGGACGG | 0.993 ± 0.06 |
| TTAAGGGGGT | 1.03 ± 0.08 |
| TAGTAAAGGT | 1.022 ± 0.0068 |
| GACAGGTTGA | 0.993 ± 0.036 |
| TGGGATCGCC | 1.02 ± 0.028 |
| TTAGGAGGGT | 0.965 ± 0.037 |
| CGTGGTTAGT | 0.964 ± 0.023 |
| TAAAATTGGT | 0.983 ± 0.027 |
| GGGGGATTTC | 1.12 ± 0.26 |
| GGGGTTGTTA | 0.988 ± 0.021 |
| CTTAAAGTAT | 0.9977 ± 0.0024 |
| GTCCAGGGGA | 1.04 ± 0.1 |
| TTCGTGCCAG | 1.01 ± 0.043 |
| GGGCGGGATG | 0.984 ± 0.037 |
| CCTTTCCGGG | 1.21 ± 0.048 |
| CTGCGCAAGG | 6.27 ± 0.014 |
| TCACAGGTTT | 1.05 ± 0.017 |
